From patent publication US11542480B2
Substitutions are numbered along the chain they refer to.

B1: Geobacillus kaustophilus HTA426 wild-type glycine oxidase (WT-GOX), SEQ ID NO: 1 (Geobacillus kaustophilus HTA426) (protein)
chain: MTHRYDVAIVGGGVIGAAIGFELAKRRHRVAIFEKGTMGSGASSAAAGMLGAQSEFSTSSPLVPLALQSRALMPALAEELRERTGIDIGLVEKGLIKLATTEEEADDLYRHYTFWRGIGEPVQWLTKGEALEMEPRLAAEALAGAMYIPGDGQVSAPDLAAALAYAAASAGACLYEYTEVFDIRSDSSGHVLDTTGGTFAAEAVVIASGAWAARLGARVGLSLSVYPVKGECVMVRAPVPLLQTTVFAKNGCYIVPKSGNRLLIGATSTPGTFDRRVSAGGVMNLLHRAAHLVPDIEQAEWVASWSGIRPQTEDGLPYLGEHPERRGLFVAAGHYRNGILLSPLTGLLVADLVERKETAFDLAPFSLTRHIGKVGVE
B2: Geobacillus kaustophilus HTA426 glycine oxidase variant V-GOX1, 251st glycine of SEQ ID NO: 1 substituted with glutamine (Gly251Gln; SEQ ID NO: 3 with Xaa251 = … (protein)
chain: B1 chain with G251Q

Tests used:
[1] = substrate: NCC(=O)O; assay: purified protein, by the assay type; assay type: biochemical, Geobacillus kaustophilus HTA426; conditions: other: substrate glycine, 37° C., pyrophosphate, pH 8.5, WT-GOX, 60.0 °C
Description: HTA426 is available, for example, from the National Research and Development Agency, RIKEN BioResource Research Center (RIKEN BRC) Microbe Division (JCM) (JCM12893).
However, a plasmid vector of pET-15b was used as a vector, and E. coli BL21 (DE3) was used as a host cell (host).
For convenience of explanation, the wild-type glycine oxidase is abbreviated as “WT-GOX”.

[2] = substrate: NCC(=O)O; assay: purified protein, by the assay type; assay type: biochemical, Geobacillus kaustophilus HTA426; conditions: other: substrate glycine, 37° C., pyrophosphate, pH 8.5, purified V-GOX1, 70.0 °C
Procedure: For convenience of explanation, the mutant glycine oxidase is abbreviated as “V-GOX” in this example.
The enzyme activity in Table 2 is shown as the ratio (times) of the enzyme reaction rate (use of crude enzyme solution) of V-GOX when WT-GOX is used as reference (1).
Therefore, after purifying this V-GOX1, the molecular weight (SDS-PAGE), the optimum temperature, the optimum pH, thermal stability, pH stability, the specific activity, and the kinetic constant Km were evaluated. The results of the specific activity, thermal stability, and the kinetic constant Km are shown in Table 1 above, the specific activity is shown in FIG. 3A, and thermal stability is shown in FIG. 3B, and further, evaluation results of enzyme properties of V-GOX1 containing them are also shown in Table 3 together with the conditions.

| Protein | Km [1] [mM mM] | Km [2] [mM mM] |
| --- | --- | --- |
| B1 | 0.25 |  |
| B2 |  | 0.20 |
